Data on four molecules can be found in patent publication US20240026407A1, “MODIFICATION OF SAPONINS” (GLAXOSMITHKLINE BIOLOGICALS SA, priority 2020, published 2024).

Common to all, as to format: biochemical, Quillaja saponaria
A short description of assay [1]: Experiment 6-1: screening of rhamnosidases for derhamnosylation of saponins in treated bark extract (2%), QS-17 2296 to QS-18 2150 (PAR %). Particulars: TBE 2%, pH 7.5, 30 degC, 18 h; TIC peak area ratio percent of rhamnosylated starting saponin to derhamnosylated product, LCMS/MS; negative controls 4.876, 5.225.
The nature of assay [2]: Experiment 6-1: screening of rhamnosidases for derhamnosylation of saponins in treated bark extract (2%), desglucosyl-QS-17 2134 to QS-21 1988 (PAR %). The settings on record: TBE 2%, pH 7.5, 30 degC, 18 h; TIC peak area ratio percent, LCMS/MS; negative controls 2.719, 2.158.
Assay [3] in a line: Experiment 6-1: screening of rhamnosidases for derhamnosylation of saponins in treated bark extract (2%), QS-17 2310 to QS-18 2164 (PAR %). The settings on record: TBE 2%, pH 7.5, 30 degC, 18 h; TIC peak area ratio percent, LCMS/MS; negative controls 3.061, 2.429.
The nature of assay [4]: Experiment 6-1: specificity of rhamnosidases towards other rhamnose residues (C3 saccharide rhamnose, C28 saccharide rhamnose). The settings on record: TBE 2%, pH 7.5, 30 degC, 18 h; LCMS/MS; negative controls 0.18, 0.17.

B1: 1028 (protein, listed as Formosa agariphila)
chain: MKYNKLLFSLLLLAVFCFSCKEEQKLQTSLDFDKVLLNAKSNPIAIESESPLFSWIIKAEGFGKSQSAYHILVASSLDKLDETHADVWNSNKVESSKSTFVKYEGKELKAATRYYWKVKVWDKSNQESNWSEPQYFQMGLLDESNWGEAKWITLTNDTRTSEYRFREYKTGRMEQPIQVDGFAASYFRNKINLNKEVDNAQVYICGLGYYEFFLNGEKVGDHVLDPAPSNYDKQAYYVNYDITEQLNSGENALGIILGNGFYGQNISWKNDPESDRDLAYGPPTVRVLLKLKYKDGTESEFFSDETWKESTGPIVFNNIYGGDTYDARFELGDWTSTNYDDSSWGFAKETAPEIKNISAQQIPAIKKLQDYEPQNVFKGSDGEWIVDFGQNIAGWVKLNVSEKEGQLIEVITTEALLTNGRDIFPGSTGGGANGMAQIYQYICKGDGQESWEPKFSYHGFRYAKIKGVSTKPDADMIKAVLVATDIQETGSFECSDDLFNKMHNISKWTIVDNVHGIPEDCPHREKCGWLGDAHAFCEYALYNYDMYDFYKKYMEDIRTQMLPTKGHNNPELKFQVPTMIAPGKRTSSYAKIDWGVATMYLPWYNYLYYGDDAIVNEYYPEMKDLTNFYLNFKGENGIMQDGMGDWCPPRWDRRTNPEAMECDPIISANAYFYDVLGIMETFAKMNNDGAFQSEMKAEKEALKDAFNKAFLVEIPNTDFKWYQSQTATVQALQFGMVPEEEIENVVNGLEYDIVEVKGGHHSTGIHGNRYIYTVLSKYGKADLAYRILTTPDFPSQTYIMNSGFTTWPERQFEWETMEGPTNSLNHPMHSGFSAYFFESLGGIKSSTKEAGYKQFIVNPEFPSQITQTKVSVPTPYGDIKNDWSFEEGKLSMTLEIPFNTEANLVLNQAELESLIINGKTFQNLQKNTKSVTLQGSNVILGSGKYKILYNKR
For the molecule B1, the “QS-17 (PAR %)” value in assay [1] is on record as 5.081%. Besides, the “Peak75 (PAR %)” value in assay [2] was 2.885%. The “Peak57 (PAR %)” value in assay [3] stood at 1.993%. In assay [4], the “ratio PP/QS-21” value stood at 0.15.

B2: 1012 (protein)
chain: MKSRLKQQIFAISLLACTAISPANALQTHLLREQFQNPSDEAKPWTFWYWMFGAVSKEGITADLEAMKRAGLGGTYLMPIKGIKEGPQYNGKAQQLTPEWWEMVRFSMEEADRLGLKLGMHICDGFALAGGPWMTPKESMQKIVWSDTIVDGGKIKGLHLPQPEAYEGFYEDISLFALPVKEEAADVMPAQITCANIATGNHIDIKKTVNMDDAGVIRSSYPCYIQYEYEQPFTCRNIEIILSGNNYQAHRLKVMASDDGVNYRLVKQLVPARQGWQNTDENSTHAIPATTARYFRFYWTPEGSEPGSEDMDAAKWKPNLKIKELRLHREARLDQWEGKAGLVWRVASSTKKEEIGEQDCYALSQIINLTDPFKNSPSDNFKERTLTATLPKGKWKLLRMGHTATGHTNATAGGGKGLECDKFNPKAVRKQFDNWFAQAFVKTNPDVARRVLKYMHVDSWECGSQNWSDTFAAEFRKRRGYDLMPYLPLLAGIPMESAERSEKILRDVRTTIGELVVDVFYQVLADCAKEYDCQFSAECVAPTMVSDGLLHYQKVDLPMGEFWLNSPTHDKPNDMLDAISGAHIYGKNIIQAEGFTEVRGTWNEHPGILKALLDRNYALGINRLFFHVYVHNPWLDRKPGMTLDGIGLFFQRDQTWWNKGAKAFCEYITRCQSLLQYGHPVADIAVFTGEEMPRRSILPERLVPSLPGIFGAERVESERIRLANEGQPLRVRPVGVTHSANMSDPEKWVNPLRGYAYDSFNKDALLRLAKAENGRMTLPGGASYKVLVLPLPRPMNPDPAALSPEVKQKINELKEAGILIPSLPYKEDDFSSYGLERDLIVPENIAWTHRQGEQGDIYFIANQLEETRTFTASMRIDGRKPECWNPVTGEINADIPYEQKSHRTEITLTLAPNESVFIVYPAEEDDKETSEKERKEKKDSVKEASETGLEATEYTVTFTANGKTIQRQELFDWSKEEDEQIRYYSGTAVYKTTFRWKSKVKEDQQVYLNLGKVCDLATVRVNGIDCGTIWTAPYRADITAALKKGVNELEIEVTNTWANALKGADEGKAPFDGIWTNAKYRRAENTLLPAGLLGPLNFDVANKNK
modifications: Bacteroides thetaiotaomicron
As for B2, the “QS-17 (PAR %)” value in assay [1] is recorded as 5.068%. Further, the “Peak75 (PAR %)” value in assay [2] was found to be 2.610%. Besides, in assay [3], the “Peak57 (PAR %)” value is on record as 3.249%. In addition, the “ratio PP/QS-21” value in assay [4] turned out to be 0.16.

B3: 991 (protein)
chain: MKFARLNTLTVWLITSFITVSFTISEAISADLTPVNLRTEYKRNPVVDVDKPRLSWELTATGRGQIQTAYQILVASSAALLNAEKADLWQSAKVAGNATNQIEYSGKTLLSRTVCYWKVRSWDKNGQPGPWSAVATWEMGLLTKADWKADWIGNDLTALGKGKTYHLPPSPFFRKEIQLTAPVKKARLYVTSLGLYEYQINGKRIGNDYFTPGWTDYNKRVYYQTYDVTADVKPGKNALGAILADGWYAGYLGYALLVGNPVVKNFYGNVPLLKAQLEIEYTNGKTETIATDQSWKTSHGPILEADILNGETYNANLAFDNWSKTGFNDAGWKNSTIFPDKPDRQLEAYPGNPVRVFQELKAKTVTPKAGGHYLFDLGQNFAGMVRLRVKGNKGDTIRLRFGEVLFPNGDIMTENLRKARATDTYILKGDPQGETWTPKFTYHGFQYVDVAGFKSAPGLDAITGIVLTSATPETGSFETDNKLINKLYQNIVWTQRSNYVEVPTDCPQRDERLGWTGDAQAYVQSATFNNDISAFFTKWLVDLNDAQRPDNAYPIYAPAPNVRKTDTYSPGWSEAGIICPYTIYKTYGDTRVIQKFWPNMVAYLKFMEAKSQGTYVYKEGSFAEVSPKGGFGDWLSVGKKTPPDMLATLYFGYAASMMADMAKAIGKPDEATYYTTMFTKIKQAFRAHYTDETGRFKTNSAAYGNGEGYVDGEMGFEGHTQTAYANAIYMNMIAPDLTPKAGNWLVDLIKANDNKLSTGFLGVKPLLPSLSMTGHSNEAYKLLLSTEYPSWGFEVVNGANTIWERWNSYIKGKGFENNAGMNSFNHYAFGSVNEWLFGNAAGIKAAEAGYRTFIIRPELAPQGINFVNASYRSINGTIVSSWKKEGNRVRMKVVVPANTTATVFIPITKPDSVLESNKALTASQDIRVIGARDGYLQVTVGSGTYQFSAVN
modifications: Spirosoma linguale
On to B3, for which, in assay [1], the “QS-17 (PAR %)” value is 5.084%. Moreover, in assay [2], the “Peak75 (PAR %)” value is 2.453%. In addition, the “Peak57 (PAR %)” value in assay [3] worked out at 3.443%. Besides, the “ratio PP/QS-21” value in assay [4] came out at 0.17.

B4: 1004 (protein)
chain: METQVIKPIAVGDLQITRFTIEHFPGDALGIPTATPRMNWTYSRAVPDGSQILLKISRRVPGSPAKEECTYLPPEDNVLVPWQFTPLASREEVFATVQLVSAAHKPLSDPSATLHFEAGLMQEYEHVADFVGPSWAEPETDHRHLPLIRTEIAIKAKPKRARLYLSALGLVEAEINGVKIGNDALIPGWTNYEQRVQCWTYDVTGELNEGANAMGFWLGDGWYRGRLGFDGGYVNYYGDRLGVFAQLEVEYEDGGIEHVYSNAWDRQWKASLGPIVCSDLCEGERYDARLEQPGWSEPGFDDSSWKPVAEIFYDPAKIENPDTSPVRAQEINEPVSITRTGDTPDGRGIWLVDFGQNCTQRIHLHVKGLEAGQSVELHHVEVLEPNGEIATRTLRRGQQHDIYTSNGTDAWWEPRFAMHGFRYAQIEGVAGELTAADIECHVYHSVMDRAGELETSNPLLNRLHANALWSMRSNFVSVPQDCPQRDERMGWTGDICLFAPTAAYLYDVYGFLKSWLKDVRADQVKWGTVPFYVPFIPLGGWAHPQAISTWGDSAVEVPWVLYMESGDPQILADSYDLSRDWIDEVAGYLSPDGVWDRRPDYVLGQLGDWLDPTAPPDDPTQAMTEKELVATAFFARSCAQAEQIARILGNNEDAVRFGDLRRHVTSGFLARFTNLDGTMTSDTQCAYALAIAFGLLDGEPVRRVKAGNRLAKLVRESGGKVSTGFAGTPFVLPALTMTGHNEEAYGLLLSEECPSWLYQVKMGATTTWERWDSMRPDGSLNPGGMTSFNHYALGSVAEWMHAHIGGLEAIEAGWKRFRVAPVIGGGLDHASTSHVTPYGKASVAWKTSAEGVELDVTVPIGATAVVELPDHEPTELAGGTHHLVVAL
modifications: Bifidobacterium moukalabense
B4: the “QS-17 (PAR %)” value in assay [1] was found to be 5.076%. Also, in assay [2], the “Peak75 (PAR %)” value was 2.553%. In addition, in assay [3], the “Peak57 (PAR %)” value came out at 2.942%. The “ratio PP/QS-21” value in assay [4] worked out at 0.16.
